Assays:
Experiment in all cases: two-hybrid library CCNG1;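 further: natural log of median RNA to DNA barcode read ratio; higher means stronger binding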
[1] = target: T1, 4H1193-bN
T1 chain: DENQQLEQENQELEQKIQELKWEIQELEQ

[2] = target: T2, 4H1328-bN
T2 chain: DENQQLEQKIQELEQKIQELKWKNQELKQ

[3] = target: T3, 4H1369-bN
T3 chain: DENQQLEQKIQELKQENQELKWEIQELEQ

[4] = target: T4, 4H1387-bN
T4 chain: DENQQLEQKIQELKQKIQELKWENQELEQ

[5] = target: T5, 4H1406-bN
T5 chain: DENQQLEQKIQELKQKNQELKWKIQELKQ

[6] = target: T6, 4H1446-bN
T6 chain: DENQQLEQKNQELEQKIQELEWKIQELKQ

[7] = target: T7, 4H1845-bN
T7 chain: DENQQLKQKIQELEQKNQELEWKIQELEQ

[8] = target: T8, 4H2576-bN
T8 chain: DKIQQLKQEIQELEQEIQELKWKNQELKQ

[9] = target: T9, 4H2610-bN
T9 chain: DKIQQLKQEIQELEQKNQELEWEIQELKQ

[10] = target: T10, 4H2667-bN
T10 chain: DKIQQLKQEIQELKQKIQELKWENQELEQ

[11] = target: T11, 4H2697-bN
T11 chain: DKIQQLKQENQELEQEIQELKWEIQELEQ

[12] = target: T12, 4H3189-bN
T12 chain: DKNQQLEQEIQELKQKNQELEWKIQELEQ

[13] = target: T13, 4H331-bN
T13 chain: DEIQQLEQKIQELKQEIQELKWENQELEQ

[14] = target: T14, 4H3592-bN
T14 chain: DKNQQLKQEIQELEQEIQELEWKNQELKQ

[15] = target: T15, 4H3601-bN
T15 chain: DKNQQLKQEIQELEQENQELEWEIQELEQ

[16] = target: T16, 4H3606-bN
T16 chain: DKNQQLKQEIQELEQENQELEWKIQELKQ

[17] = target: T17, 4H370-bN
T17 chain: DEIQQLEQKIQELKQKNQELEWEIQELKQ

[18] = target: T18, 4H3782-bN
T18 chain: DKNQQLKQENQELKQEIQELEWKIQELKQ

[19] = target: T19, 4H3843-bN
T19 chain: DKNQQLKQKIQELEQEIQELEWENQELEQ

[20] = target: T20, 4H3907-bN
T20 chain: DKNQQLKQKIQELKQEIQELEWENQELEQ

[21] = target: T21, 4H4001-bN
T21 chain: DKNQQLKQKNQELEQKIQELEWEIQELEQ

[22] = target: T22, 4H4038-bN
T22 chain: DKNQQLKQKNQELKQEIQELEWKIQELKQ

[23] = target: T23, 4H462-bN
T23 chain: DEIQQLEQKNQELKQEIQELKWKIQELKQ

[24] = target: T24, 4H568-bN
T24 chain: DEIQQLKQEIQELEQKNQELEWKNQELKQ

[25] = target: T25, 4H607-bN
T25 chain: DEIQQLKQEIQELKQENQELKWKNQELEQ

[26] = target: T26, 4H687-bN
T26 chain: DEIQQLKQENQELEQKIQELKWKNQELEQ

[27] = target: T27, 4H72-bN
T27 chain: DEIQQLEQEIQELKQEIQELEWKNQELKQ

[28] = target: T28, 4H797-bN
T28 chain: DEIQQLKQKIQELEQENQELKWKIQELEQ

[29] = target: T29, 4H883-bN
T29 chain: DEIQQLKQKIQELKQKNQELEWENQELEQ

[30] = target: T30, 4H918-bN
T30 chain: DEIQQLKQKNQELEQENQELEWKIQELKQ

[31] = target: T31, 4H953-bN
T31 chain: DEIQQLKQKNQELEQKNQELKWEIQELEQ

[32] = target: T32, 4H967-bN
T32 chain: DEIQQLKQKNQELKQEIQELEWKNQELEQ

DENQQLEQENQELEQKIQELKWEIQELEQ [4H1193-bN]
interaction score [1]: -1.79
interaction score [2]: -0.785
interaction score [3]: -0.409
interaction score [4]: -2.15
interaction score [5]: -0.457
interaction score [6]: -0.688
interaction score [7]: -0.197
interaction score [8]: -2.2
interaction score [9]: -2.18
interaction score [10]: -1.42
interaction score [11]: -0.604
interaction score [12]: -0.76
interaction score [13]: -1.06
interaction score [14]: -0.683
interaction score [15]: -0.788
interaction score [16]: -0.563
interaction score [17]: -1.1
interaction score [18]: 1.24
interaction score [19]: -1.2
interaction score [20]: -0.628
interaction score [21]: -0.667
interaction score [22]: 1.89
interaction score [23]: 1.11
interaction score [24]: -0.982
interaction score [25]: -0.718
interaction score [26]: -0.463
interaction score [27]: -2.07
interaction score [28]: -0.958
interaction score [29]: -0.365
interaction score [30]: -1.23
interaction score [31]: -0.991
interaction score [32]: -0.916

From paper PMC10397247
